In PMC9284427 (The Journal of Cell Biology, 2022):
Numbering of substitutions follows the chain as printed. Names may count otherwise. Read-outs that look alike come from different tables or passages of the source. Each block holds one binder with its values, some of them ahead of it.

T1: mouse JIP3[186-505] (mouse, UniProt Q9ESN9-5 186-505)
T1 sequence (looked up): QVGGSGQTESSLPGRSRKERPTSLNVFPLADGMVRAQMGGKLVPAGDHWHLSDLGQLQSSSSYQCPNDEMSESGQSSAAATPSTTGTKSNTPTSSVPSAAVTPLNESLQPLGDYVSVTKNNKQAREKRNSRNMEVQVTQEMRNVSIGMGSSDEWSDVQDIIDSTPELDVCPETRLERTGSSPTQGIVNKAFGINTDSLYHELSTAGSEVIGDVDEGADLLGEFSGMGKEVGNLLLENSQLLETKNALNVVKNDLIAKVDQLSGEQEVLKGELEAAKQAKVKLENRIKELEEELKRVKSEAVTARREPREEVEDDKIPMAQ

T2: full-length RILP (human, UniProt Q96NA2-1 1-401)
T2 sequence (looked up): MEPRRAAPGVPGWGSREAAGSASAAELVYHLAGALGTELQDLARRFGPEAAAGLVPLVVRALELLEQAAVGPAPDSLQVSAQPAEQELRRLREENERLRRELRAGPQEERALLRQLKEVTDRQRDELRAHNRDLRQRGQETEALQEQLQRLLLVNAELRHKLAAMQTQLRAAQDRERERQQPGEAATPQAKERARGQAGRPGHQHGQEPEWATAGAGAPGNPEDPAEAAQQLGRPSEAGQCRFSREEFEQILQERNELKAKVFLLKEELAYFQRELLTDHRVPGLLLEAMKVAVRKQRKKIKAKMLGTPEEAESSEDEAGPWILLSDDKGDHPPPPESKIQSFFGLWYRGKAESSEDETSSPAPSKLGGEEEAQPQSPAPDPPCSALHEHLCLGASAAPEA

B1: JIP3[1-108] (domain or fragment, human, UniProt Q9UPT6-1 1-108, looked up)
chain: MMEIQMDEGGGVVVYQDDYCSGSVMSERVSGLAGSIYREFERLIHCYDEEVVKELMPLVVNVLENLDSVLSENQEHEVELELLREDNEQLLTQYEREKALRRQAEEKF
B2: MBP-tagged JIP3[1-108] (domain or fragment, human, UniProt Q9UPT6-1 1-108, looked up)
chain: B1 chain
B3: JIP3[1-108] V60Q (domain or fragment, human, UniProt Q9UPT6-1 1-108, looked up)
chain: B1 chain with V60Q
B4: MBP::UNC-16[1-120] (domain or fragment, C. elegans, UniProt P34609-1 1-120, looked up)
chain: MACNLSPVNEMADSITSSTPSEIVYGGPGSPDEHRTMSDKVQTMASAIYRELETMIKVHGEDGVKTLMPLVVNVLEALDLAYLERDEQTAELEMLKEDNEQLQTQYEREKALRKQTEQKY
B5: MBP::UNC-16[1-120] V72Q (domain or fragment, C. elegans, UniProt P34609-1 1-120, looked up)
chain: B4 chain with V72Q
B6: GST::DLI-1[369-442] (domain or fragment, C. elegans, UniProt G5ED34 369-442, looked up)
chain: TTAAPKPRTMQEEPTDKDSPLANFFSNLLNKDKPSKVSSPSTVSQPMDAAATQAQLDRLLKSAQSPKPQPRDSD
B7: GST-tagged KLC1[185-501] (domain or fragment, human, UniProt Q07866-1 185-501, looked up)
chain: DDPGQGIQQQHSSAAAAAQQGGYEIPARLRTLHNLVIQYASQGRYEVAVPLCKQALEDLEKTSGHDHPDVATMLNILALVYRDQNKYKDAANLLNDALAIREKTLGKDHPAVAATLNNLAVLYGKRGKYKEAEPLCKRALEIREKVLGKDHPDVAKQLNNLALLCQNQGKYEEVEYYYQRALEIYQTKLGPDDPNVAKTKNNLASCYLKQGKFKQAETLYKEILTRAHEREFGSVDDENKPIWMHAEEREECKGKQKDGTSFGEYGGWYKACKVDSPTVTTTLKNLGALYRRQGKFEAAETLEEAAMRSRKQGLDNV
B8: GST::DLIC1[388-523] (domain or fragment, human, UniProt Q9Y6G9 388-523, looked up)
chain: PTAAGRPVDASPRVPGGSPRTPNRSVSSNVASVSPIPAGSKKIDPNMKAGATSEGVLANFFNSLLSKKTGSPGGPGVSGGSPAGGAGGGSSGLPPSTKKSGQKPVLDVHAELDRITRKPVTVSPTTPTSPTEGEAS
B9: JIP4[1-103] (domain or fragment, human, UniProt O60271-1 1-103, looked up)
chain: MELEDGVVYQEEPGGSGAVMSERVSGLAGSIYREFERLIGRYDEEVVKELMPLVVAVLENLDSVFAQDQEHQVELELLRDDNEQLITQYEREKALRKHAEEKF
B10: RILP[1-106] (domain or fragment, human, UniProt Q96NA2-1 1-106, looked up)
chain: MEPRRAAPGVPGWGSREAAGSASAAELVYHLAGALGTELQDLARRFGPEAAAGLVPLVVRALELLEQAAVGPAPDSLQVSAQPAEQELRRLREENERLRRELRAGP

What was measured:
AUC = target: the molecule itself; assay: AUC
DLIC1[388-523] = DLIC1[388-523] (human, UniProt Q9Y6G9 388-523); assay: ITC
GST::KIF5C[807-956] [1] = target: T3, GST::KIF5C[807-956] (mouse, UniProt P28738 807-956); assay: pull-down
GST::KIF5C[807-956] [2] = target: T3, GST::KIF5C[807-956]; assay: pull-down; remark: listed apart in the source
UNC-116[675-815] = UNC-116[675-815] (C. elegans, UniProt P34540 675-815); assay: pull-down
MBP::UNC-16[1-120] = target: B4; assay: pull-down
MBP-tagged JIP3[1-108] = target: B2; assay: pull-down
mouse JIP3[186-505] = target: T1, mouse JIP3[186-505]; assay: pull-down
RILP[1-106] = target: B10; assay: SEC
full-length RILP = target: T2, full-length RILP; assay: pull-down
GST::DLIC1[388-523] = target: B8; assay: pull-down

T3 sequence (P28738 807-956): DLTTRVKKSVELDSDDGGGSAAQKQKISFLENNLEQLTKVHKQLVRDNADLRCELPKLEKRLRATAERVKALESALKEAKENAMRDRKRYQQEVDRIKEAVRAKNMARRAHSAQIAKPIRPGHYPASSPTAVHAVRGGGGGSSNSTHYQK
Sequence of UNC-116[675-815] (P34540 675-815): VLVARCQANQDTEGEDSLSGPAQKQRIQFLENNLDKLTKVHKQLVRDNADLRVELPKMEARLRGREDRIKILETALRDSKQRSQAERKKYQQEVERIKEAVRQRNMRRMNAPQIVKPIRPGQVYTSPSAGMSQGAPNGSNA

Binder: B1
stoichiometry N (AUC): 2 | Kd (DLIC1[388-523]): ~1 µM | stoichiometry N (DLIC1[388-523]): 2 DLIC1-C molecules per RH1 dimer | binding result (GST::KIF5C[807-956] [1]): binds

Binder: B2
binding result (GST::KIF5C[807-956] [2]): binds

Binder: B3
stoichiometry N (AUC): 2 | binding result (GST::KIF5C[807-956] [1]): binds

Binder: B4
binding result (UNC-116[675-815]): binds

Binder: B5
binding result (UNC-116[675-815]): binds

Binder: B6
binding result (MBP::UNC-16[1-120]): binds

binding result (MBP-tagged JIP3[1-108]): binds
Binder: NMKAGATSEGVLANFFNSLLSKKTGS (peptide, UniProt Q9Y6G9 433-458, looked up) [DLIC-C helix 1 peptide (residues 433-458)]

Binder: B7
binding result (mouse JIP3[186-505]): binds

binding result (RILP[1-106]): binds
Binder: SEGVLANFFNSLLSKK (domain or fragment, human) [DLIC1[440-455]]

Binder: B8
binding result (full-length RILP): binds

Binder: B9
stoichiometry N (AUC): 2 | Kd (DLIC1[388-523]): ~4 µM | stoichiometry N (DLIC1[388-523]): 2 DLIC1-C molecules per RH1 dimer

Binder: B10
binding result (GST::DLIC1[388-523]): binds
